Here are results for one molecule from patent US20150044214A1 (Hoffmann-La Roche, published 2015).

In this assay the target is T1, human VEGF-A (human, UniProt P15692-4 27-191).
T1 construct: ELISA methods name 'full-length VEGF165-His protein (R&D Systems)'; Biacore methods name rhVEGF (R&D Systems Cat. No. 293-VE); also called VEGF165; VEGF165-His
In words: ELISA and Biacore (SPR), incl. simultaneous binding (bridging ELISA, sandwich SPR). On the technique in general: An ELISA detects its analyte on a solid surface through an enzyme-linked reagent.

T1 sequence (P15692 other isoform, or with tags, fused parts or gaps limits assumed): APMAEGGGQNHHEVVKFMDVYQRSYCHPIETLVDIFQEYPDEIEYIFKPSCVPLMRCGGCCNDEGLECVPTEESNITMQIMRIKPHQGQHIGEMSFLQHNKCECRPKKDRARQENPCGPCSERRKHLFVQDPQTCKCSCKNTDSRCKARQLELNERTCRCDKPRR

B1: bispecific, tetravalent antigen binding protein recognizing Ang-2 and VEGF-A (bispecific antibody, human IgG1, kappa)
heavy 1: not shown
light 1: QPGLTQPPSVSVAPGQTARITCGGNNIGSKSVHWYQQKPGQAPVLVVYDDSDRPSGIPERFSGSNSGNTATLTISRVEAGDEADYYCQVWDSSSDHYVFGTGTKVTVLRTVAAPSVFIFPPSDEQLKSGTASVVCLLNNFYPREAKVQWKVDNALQSGNSQESVTEQDSKDSTYSLSSTLTLSKADYEKHKVYACEVTHQGLSSPVTKSFNRGEC
heavy 2: not shown
light 2: DIQMTQSPSSLSASVGDRVTITCSASQDISNYLNWYQQKPGKAPKVLIYFTSSLHSGVPSRFSGSGSGTDFTLTISSLQPEDFATYYCQQYSTVPWTFGQGTKVEIKSSASTKGPSVFPLAPSSKSTSGGTAALGCLVKDYFPEPVTVSWNSGALTSGVHTFPAVLQSSGLYSLSSVVTVPSSSLGTQTYICNVNHKPSNTKVDKKVEPKSC
notes: Expressed transiently in HEK293F cells; also called bispecific tetravalent <VEGF-Ang-2> antibody; <Ang-2, VEGF> bispecific tetravalent antibody
On to B1, for which the binding result is “binds”.
